Assay results from patent publication US8840891 (RSR, dated 2014).
Where two headings read alike, the source gives them in different places.

Columns and labels:
Experiment in all cases: cell-based or functional assay
[1] = target: wild type human TSHR (thyrotropin receptor) expressed on CHO cells (human) (UniProt P16473)
[2] = target: TSHR Lys183Ala expressed in CHO cells (human) (UniProt P16473)
[3] = target: TSHR with Asp43 mutated to Alanine expressed on CHO cells (human) (UniProt P16473)
[4] = target: human TSHR (wild type) expressed in CHO cells (human) (UniProt P16473)
[5] = target: wild type human TSHR (thyrotropin receptor) expressed on CHO cells (human) (UniProt P16473); remark: listed apart in the source
[6] = target: TSHR Asp151Ala expressed in CHO cells (human) (UniProt P16473)
[7] = target: TSHR I568T (activating mutation) expressed in CHO cells (human) (UniProt P16473)
[8] = target: TSHR with Glu107 mutated to Alanine expressed on CHO cells (human) (UniProt P16473)
[9] = target: TSHR with activating mutation I568T expressed on CHO cells (human) (UniProt P16473)
[10] = target: TSHR with activating mutation A623I expressed on CHO cells (human) (UniProt P16473)
[11] = target: TSHR with activating mutation S281I expressed on CHO cells (human) (UniProt P16473)

B1: 5C9 IgG (human monoclonal autoantibody to the TSHR) (antibody, from another filing, V domains shown)
VH: EVQLVESGGGLIQPGGSLRLSCAASGFTVSSNYMSWVRQAPGKGLEWVSVTYSGGSTSYADSVKGRFTISRDNSKNTLYLQMNSLRAEDTAVYYCARGGRYCSSISCYARSGCDYWGQGTLVTVSS
VL: AIQMTQSPSSLSASVGDRVTITCRASQSISNYLNWYQQKPGKAPKLLIYAASSLQSGVPSRFSGSGSGTDFTLTISSLQPEDFATYYCQQSYSSPSTTFGQGTKLEIK
Cyclic AMP produced; 5C9 0.01 µg/mL + TSH (fmol/cell well) [1]: 16300 | Cyclic AMP produced; 5C9 0.1 µg/mL + TSH (fmol/cell well) [1]: 5000 | Cyclic AMP produced; 5C9 1.0 µg/mL + TSH (fmol/cell well) [1]: 808 | Cyclic AMP produced; 5C9 10 µg/mL + TSH (fmol/cell well) [1]: 684 | Cyclic AMP produced; 5C9 100 µg/mL + TSH (fmol/cell well) [1]: 246 | Cyclic AMP produced; 5C9 100 µg/mL only (fmol/cell well) [1]: 111 | % inhibition of TSH stimulation of cyclic AMP; 5C9 IgG 1 µg/mL [2]: 28% | % inhibition of TSH stimulation of cyclic AMP; 5C9 IgG 100 µg/mL [2]: 43% | Cyclic AMP produced; 5C9 0.01 µg/mL + TSH (fmol/cell well) [3]: 12700 | Cyclic AMP produced; 5C9 0.1 µg/mL + TSH (fmol/cell well) [3]: 6730 | Cyclic AMP produced; 5C9 1.0 µg/mL + TSH (fmol/cell well) [3]: 471 | Cyclic AMP produced; 5C9 10 µg/mL + TSH (fmol/cell well) [3]: 119 | Cyclic AMP produced; 5C9 100 µg/mL + TSH (fmol/cell well) [3]: 31 | Cyclic AMP produced; 5C9 100 µg/mL only (fmol/cell well) [3]: 206 | Mutated/wild type (%); 5C9 0.01 µg/mL + TSH [3]: 97% | Mutated/wild type (%); 5C9 0.1 µg/mL + TSH [3]: 86% | Mutated/wild type (%); 5C9 1.0 µg/mL + TSH [3]: 23% | Mutated/wild type (%); 5C9 10 µg/mL + TSH [3]: 39% | Mutated/wild type (%); 5C9 100 µg/mL + TSH [3]: 37% | Mutated/wild type (%); 5C9 100 µg/mL only [3]: 438% | % inhibition of TSH stimulation of cyclic AMP; 5C9 IgG 1 µg/mL; wild type in the Asp151Ala experiment [4]: 88% | % inhibition of TSH stimulation of cyclic AMP; 5C9 IgG 1 µg/mL; wild type in the Lys183Ala experiment [4]: 84% | % inhibition of TSH stimulation of cyclic AMP; 5C9 IgG 100 µg/mL; wild type in the Lys183Ala experiment [4]: 93% | activity in blocking TSH stimulation of cyclic AMP, relative to donor serum IgG [4]: 3900 times | basal cyclic AMP level relative to cyclic AMP assay buffer; 5C9 IgG 1 µg/mL; CHO cells with approximately 5x10^5 wild type TSHRs per cell [4]: 33% | cyclic AMP production; 5C9 IgG 0.001 µg/mL + M22 Fab 3 ng/mL (fmol/cell well) [4]: 11600 | cyclic AMP production; 5C9 IgG 0.001 µg/mL + pTSH 3 ng/mL (fmol/cell well) [4]: 14100 | cyclic AMP production; 5C9 IgG 0.001 µg/mL only (fmol/cell well) [4]: 554 | cyclic AMP production; 5C9 IgG 0.01 µg/mL + M22 Fab 3 ng/mL (fmol/cell well) [4]: 9980 | cyclic AMP production; 5C9 IgG 0.01 µg/mL + pTSH 3 ng/mL (fmol/cell well) [4]: 15000 | cyclic AMP production; 5C9 IgG 0.01 µg/mL only (fmol/cell well) [4]: 578 | cyclic AMP production; 5C9 IgG 0.1 µg/mL + M22 Fab 3 ng/mL (fmol/cell well) [4]: 1300 | cyclic AMP production; 5C9 IgG 0.1 µg/mL + pTSH 3 ng/mL (fmol/cell well) [4]: 3920 | cyclic AMP production; 5C9 IgG 0.1 µg/mL only (fmol/cell well) [4]: 404 | cyclic AMP production; 5C9 IgG 1 µg/mL + M22 Fab 3 ng/mL (fmol/cell well) [4]: 956 | cyclic AMP production; 5C9 IgG 1 µg/mL + pTSH 3 ng/mL (fmol/cell well) [4]: 1870 | cyclic AMP production; 5C9 IgG 1 µg/mL only (fmol/cell well) [4]: 376 | cyclic AMP production; 5C9 IgG 10 µg/mL + M22 Fab 3 ng/mL; mean of duplicate samples (fmol/cell well) [4]: 638 | cyclic AMP production; 5C9 IgG 10 µg/mL + pTSH 3 ng/mL (fmol/cell well) [4]: 1030 | cyclic AMP production; 5C9 IgG 10 µg/mL only (fmol/cell well) [4]: 360 | cyclic AMP production; 5C9 IgG 100 µg/mL + M22 Fab 3 ng/mL (fmol/cell well) [4]: 354 | cyclic AMP production; 5C9 IgG 100 µg/mL + pTSH 3 ng/mL (fmol/cell well) [4]: 1090 | cyclic AMP production; 5C9 IgG 100 µg/mL only (fmol/cell well) [4]: 426 | cyclic AMP; 5C9 IgG 0.01 µg/mL + pTSH (3 ng/mL) (fmol/cell well) [4]: 19000 | cyclic AMP; 5C9 IgG 0.02 µg/mL + pTSH (3 ng/mL) (fmol/cell well) [4]: 16400 | cyclic AMP; 5C9 IgG 0.04 µg/mL + pTSH (3 ng/mL) (fmol/cell well) [4]: 13900 | cyclic AMP; 5C9 IgG 0.06 µg/mL + pTSH (3 ng/mL); single determination (fmol/cell well) [4]: 13300 | cyclic AMP; 5C9 IgG 0.08 µg/mL + pTSH (3 ng/mL) (fmol/cell well) [4]: 14500 | cyclic AMP; 5C9 IgG 0.1 µg/mL + pTSH (3 ng/mL) (fmol/cell well) [4]: 11900 | cyclic AMP; 5C9 IgG 0.5 µg/mL + pTSH (3 ng/mL) (fmol/cell well) [4]: 4750 | cyclic AMP; 5C9 IgG 1 µg/mL + pTSH (3 ng/mL) (fmol/cell well) [4]: 2210 | cyclic AMP; 5C9 IgG only 1 µg/mL (fmol/cell well) [4]: 141 | cyclic AMP; Example 1; 5C9 IgG 10 µg/mL + TSH (fmol/cell well) [4]: 247 | cyclic AMP; Example 1; 5C9 IgG 100 µg/mL + TSH (fmol/cell well) [4]: 754 | cyclic AMP; Example 1; 5C9 IgG 100 µg/mL only (fmol/cell well) [4]: 237 | cyclic AMP; Example 2; 5C9 IgG 10 µg/mL + TSH (fmol/cell well) [4]: 723 | cyclic AMP; Example 2; 5C9 IgG 100 µg/mL + TSH (fmol/cell well) [4]: 1110 | cyclic AMP; Example 2; 5C9 IgG 100 µg/mL only (fmol/cell well) [4]: 338 | inhibition of cyclic AMP production stimulated by patient serum T3; 5C9 IgG 100 µg/mL [4]: 50% | Cyclic AMP concentration (basal) in the presence of 5C9 IgG (1 µg/mL) (fmol/cell well) [5]: 1870 | Cyclic AMP produced; 5C9 0.01 µg/mL + TSH (fmol/cell well) [5]: 13100 | Cyclic AMP produced; 5C9 0.1 µg/mL + TSH (fmol/cell well) [5]: 7810 | Cyclic AMP produced; 5C9 1.0 µg/mL + TSH (fmol/cell well) [5]: 2020 | Cyclic AMP produced; 5C9 10 µg/mL + TSH (fmol/cell well) [5]: 306 | Cyclic AMP produced; 5C9 100 µg/mL + TSH (fmol/cell well) [5]: 84 | Cyclic AMP produced; 5C9 100 µg/mL only (fmol/cell well) [5]: 47 | Cyclic AMP produced; Experiment 1; 5C9 0.01 µg/mL + TSH (fmol/cell well) [5]: 17000 | Cyclic AMP produced; Experiment 1; 5C9 0.1 µg/mL + TSH (fmol/cell well) [5]: 5950 | Cyclic AMP produced; Experiment 1; 5C9 1.0 µg/mL + TSH (fmol/cell well) [5]: 1060 | Cyclic AMP produced; Experiment 1; 5C9 10 µg/mL + TSH (fmol/cell well) [5]: 496 | Cyclic AMP produced; Experiment 1; 5C9 100 µg/mL + TSH (fmol/cell well) [5]: 193 | Cyclic AMP produced; Experiment 1; 5C9 100 µg/mL only (fmol/cell well) [5]: 1270 | Cyclic AMP produced; Experiment 2; 5C9 0.01 µg/mL + TSH (fmol/cell well) [5]: 18600 | Cyclic AMP produced; Experiment 2; 5C9 0.1 µg/mL + TSH (fmol/cell well) [5]: 4220 | Cyclic AMP produced; Experiment 2; 5C9 1.0 µg/mL + TSH (fmol/cell well) [5]: 738 | Cyclic AMP produced; Experiment 2; 5C9 10 µg/mL + TSH (fmol/cell well) [5]: 214 | Cyclic AMP produced; Experiment 2; 5C9 100 µg/mL + TSH (fmol/cell well) [5]: 238 | Cyclic AMP produced; Experiment 2; 5C9 100 µg/mL only (fmol/cell well) [5]: 211 | % inhibition of TSH stimulation of cyclic AMP; 5C9 IgG 1 µg/mL [6]: 49% | % inhibition of basal cyclic AMP activity; 5C9 IgG 1 µg/mL [7]: 83% | Cyclic AMP produced; Experiment 1; 5C9 0.01 µg/mL + TSH (fmol/cell well) [8]: 15000 | Cyclic AMP produced; Experiment 1; 5C9 0.1 µg/mL + TSH (fmol/cell well) [8]: 5780 | Cyclic AMP produced; Experiment 1; 5C9 1.0 µg/mL + TSH (fmol/cell well) [8]: 394 | Cyclic AMP produced; Experiment 1; 5C9 10 µg/mL + TSH (fmol/cell well) [8]: 449 | Cyclic AMP produced; Experiment 1; 5C9 100 µg/mL + TSH (fmol/cell well) [8]: 203 | Cyclic AMP produced; Experiment 1; 5C9 100 µg/mL only (fmol/cell well) [8]: 462 | Cyclic AMP produced; Experiment 2; 5C9 0.01 µg/mL + TSH (fmol/cell well) [8]: 21000 | Cyclic AMP produced; Experiment 2; 5C9 0.1 µg/mL + TSH (fmol/cell well) [8]: 1540 | Cyclic AMP produced; Experiment 2; 5C9 1.0 µg/mL + TSH (fmol/cell well) [8]: 28 | Cyclic AMP produced; Experiment 2; 5C9 10 µg/mL + TSH (fmol/cell well) [8]: 321 | Cyclic AMP produced; Experiment 2; 5C9 100 µg/mL + TSH (fmol/cell well) [8]: 64 | Cyclic AMP produced; Experiment 2; 5C9 100 µg/mL only (fmol/cell well) [8]: 408 | Mutated/wild type (%); Experiment 1; 5C9 0.01 µg/mL + TSH [8]: 88% | Mutated/wild type (%); Experiment 1; 5C9 0.1 µg/mL + TSH [8]: 97% | Mutated/wild type (%); Experiment 1; 5C9 1.0 µg/mL + TSH [8]: 37% | Mutated/wild type (%); Experiment 1; 5C9 10 µg/mL + TSH [8]: 91% | Mutated/wild type (%); Experiment 1; 5C9 100 µg/mL + TSH [8]: 105% | Mutated/wild type (%); Experiment 1; 5C9 100 µg/mL only [8]: 36% | Mutated/wild type (%); Experiment 2; 5C9 0.01 µg/mL + TSH [8]: 113% | Mutated/wild type (%); Experiment 2; 5C9 0.1 µg/mL + TSH [8]: 37% | Mutated/wild type (%); Experiment 2; 5C9 1.0 µg/mL + TSH [8]: 4% | Mutated/wild type (%); Experiment 2; 5C9 10 µg/mL + TSH [8]: 150% | Mutated/wild type (%); Experiment 2; 5C9 100 µg/mL + TSH [8]: 27% | Mutated/wild type (%); Experiment 2; 5C9 100 µg/mL only [8]: 193% | Cyclic AMP concentration (basal) in the presence of 5C9 IgG (1 µg/mL) (fmol/cell well) [9]: 548 | Cyclic AMP concentration (basal) in the presence of 5C9 IgG (1 µg/mL) (fmol/cell well) [10]: 1910 | inhibition of basal cyclic AMP activity; 5C9 IgG at 1 µg/mL [10]: 49% | Cyclic AMP concentration (basal) in the presence of 5C9 IgG (1 µg/mL) (fmol/cell well) [11]: 655
